Measurements taken from patent US20070265189A1.
Read-outs that look alike come from different tables or passages of the source. Each block holds one binder with its values, some of them ahead of it. No end group written: not given here.

How the values were obtained:
[1] = target: human insulin receptor (HIR) (human) (UniProt P06213); assay: HIR Kd; method not restated (Example 3: 125I-insulin displacement, solubilised HIR)
[2] = target: human insulin receptor (HIR) (human) (UniProt P06213); assay: as above; remark: listed apart in the source
[3] = target: Soluble IGF-1R (R&D Systems, Cat. # 391-GR/CF), P08069
[4] = target: T1, Insulin receptor prepared according to Bass et al., 1996 (human), P06213
[5] = target: T1, Insulin receptor prepared according to …; assay: phage ELISA: IR ratio over background divided by IGF-1R ratio over background
[6] = target: Soluble IGF-1R (R&D Systems, Cat. # 391-GR/CF), P08069; assay: phage ELISA: IGF-1R ratio over background divided by IR ratio over background
[7] = target: Soluble IGF-1R (sIGF-1R), R&D Systems Cat. # 391-GR/CF, P08069; assay: phage ELISA
[8] = target: soluble human insulin receptor-immunoglobulin heavy chain chimera (sIR-Fc; Bass et al., 1996) (human), P06213; assay: phage ELISA
[9] = target: human insulin receptor (HIR) purified from transfected cells after solubilization with Triton X-100 (human) (UniProt P06213); assay: competition with 125I-insulin for solubilised HIR, PEG precipitation; Kd calculated
[10] = target: soluble human insulin receptor-immunoglobulin heavy chain chimera (sIR-Fc; Bass et al., 1996) (human) (UniProt P06213); assay: phage ELISA

B1: Fusion 437 (MBP fusion of H2C) (protein, not shown: large carriers; small tags and cut ends)
chain: NNNNLGIEGRISEFIEGRAQPAMAFHENFYDWFVRQVSAAAGAPVPYPDPLEPRAA
Kd [1]: 83 nM
Kd [2]: 8300 nM

B5: Fusion 436 (MBP fusion of H2C-9aa-H2C) (protein, not shown: large carriers; small tags and cut ends)
chain: NNNNLGIEGRISEFIEGRAQPAMAFHENFYDWFVRQVSGGSGGSGGSFHENFYDWFVRQVSAAAGAPVPYPDPLEPRAA
Kd [1]: 410 nM

B6: B6L-4-A7-IR (peptide, not shown: large carriers)
peptide: DYKDAGTPAQVGXNRLWSVWPGEHWNTVDPFYNKLSELLRESGAAAAGAP
modifications: not fully specified; X: residue not identified in the source; also: phage-displayed fusion
Ratio over Background, IGF-1R (ratio over background) [3]: 3.4
Ratio over Background, IR (ratio over background) [4]: 1.9
Comparison IR/IGF-1R [5]: 0.6
Comparison IGF-1R/IR [6]: 1.8

B7: 20E2B-2-B11-IGFR (peptide)
peptide: VVTPVNFYRALEALVRGXRLG
modifications: not fully specified; printed as VVTPVNFYRALEALVRG.RLG; X: residue not identified in the source
IGF-1R/IR comparison [7]: 9.4
Ratio over Background [7]: 10.6
IR/IGF-1R comparison [8]: 0.1
Ratio over Background [8]: 1.1

B8: B6L-3-G6-IR (peptide, not shown: large carriers)
peptide: DYKDVDTPAQVGWNRLWSVGPGEHWYTDDPFYHXLSELLRESGAAAAGAP
modifications: X: residue not identified in the source; also: phage-displayed fusion
Ratio over Background, IGF-1R (ratio over background) [3]: 2.5
Ratio over Background, IR (ratio over background) [4]: 1.8
Comparison IR/IGF-1R [5]: 0.7
Comparison IGF-1R/IR [6]: 1.4

B9: S386 (peptide)
peptide: GSLDESFYDWFERQLG
Kd [9]: 320 nM

B10: 20E2B-3-C11-IGFR (peptide)
peptide: CMMXDGFYAGLGCLLTAGEGR
modifications: not fully specified; printed as CMM.DGFYAGLGCLLTAGEGR; X: residue not identified in the source; cysteine pairing not given here
IGF-1R/IR comparison [7]: 7.5
Ratio over Background [7]: 15.4
IR/IGF-1R comparison [8]: 0.1
Ratio over Background [8]: 2.1

B11: H2CA-4-H9-IGFR (peptide)
peptide: RGAVAGFHDQFYDWFDRQVSRVHKFG
IR/IGF-1R comparison [10]: 0.3
Ratio over Background [10]: 1.9

B12: A6L-0-H3-IR (peptide)
peptide: YRGMLVLGRISGGAGKAASERPARIGQKVSAVNFYDWFV
IR/IGF-1R comparison [10]: 0.1
Ratio over Background [10]: 2

B13: B6Hα-2-C4-IR (peptide)
peptide: RCGRWXAEMGAGDDPFYHKLSELVCG
modifications: not fully specified; X: residue not identified in the source; cysteine pairing not given here
IGF-1R/IR comparison [7]: 11
Ratio over Background [7]: 9.9
IR/IGF-1R comparison [8]: 0.1
Ratio over Background [8]: 0.9

B15: Fusion 435 (MBP fusion of H2C-3aa-H2C-3aa-H2C) (protein, not shown: large carriers; small tags and cut ends)
chain: NNNNLGIEGRISEFIEGRAQPAMAFHENFYDWFVRQVSGGSFHENFYDWFVRQVSGGSFHENFYDWFVRQVSAAAGAPVPYPDPLEPRAA
Kd [1]: 20 nM
Kd [2]: 2000 nM

More lines, now with the values ahead:

Kd [1]: 44 nM
B2: RB521 (peptide)
peptide: MADYKDDDDKGSLDESFYDWFERQLGKKGGSGGSGSLDESFYDWFERQLGKKAAAGAPVPYPDPLEPRPG

Kd [1]: 0.059 nM
B3: RB537 (peptide)
peptide: MADYKDDDDKGSLDESFYDWFERQLGKKGGSGGSWLDQEWAWVQCEVYGRGCPSAAAGAPVPYPDPLEPRPG

Kd [1]: 60 nM
B4: RB517 (peptide)
peptide: DYKDDDDKHLCVLEELFWGASLFGYCSGGGSGGSHLCVLEELFWGASLFGYCSGAAAGAPVPYPDPLEPRAA

Kd [1]: 0.017 nM
B14: RB538 (peptide)
peptide: MADYKDDDDKGSLDESFYDWFERQLGKKGGSGGSGGSGGSWLDQEWAWVQCEVYGRGCPSAAAGAPVPYPDPLEPRPG

Kd [1]: 960 nM
B16: Fusion 463 (MBP fusion of H2C-3aa-H2C) (protein, not shown: large carriers; small tags and cut ends)
chain: NNNNLGIEGRISEFIEGRAQPAMAFHENFYDWFVRQVSGGSFHENFYDWFVRQVSAAAGAPVPYPDPLEPRAA

Kd [2]: 39 nM
B17: Fusion 464 (MBP fusion of LF-H2C) (protein, not shown: large carriers; small tags and cut ends)
chain: NNNNLGIEGRISEFIEGRDYKDDDDKFHENFYDWFVRQVSAAGAPVPYPDPLEPRAA
